{"source": "FireProtDB (doi:10.1016/s0014-5793(99)01395-2)", "conditions": "Escherichia phage lambda, pH 7, Thermal, Fluorescence, phosphate buffer 100 mM, reversible: yes, whole UniProt chain shown", "data": [{"protein": "Endolysin wild type, P03706 (protein) MVEINNQRKAFLDMLAWSEGTDNGRQKTRNHGYDVIVGGELFTDYSDHPRKLVTLNPKLKSTGAGRYQLLSRWWDAYRKQLGLKDFSPKSQDAVALQQIKERGALPMIDRGDIRQAIDRCSNIWASLPGAGYGQFEHKADSLIAKFKEAGGTVREIDV", "values": [{"measurement": "unfolding free energy", "setting": "25 °C", "result": 7.1, "unit": "kcal/mol"}, {"measurement": "Tm", "result": 52.3, "unit": "°C"}, {"measurement": "unfolding enthalpy (van 't Hoff)", "result": 113, "unit": "kcal/mol"}]}]}
